This is an account of results in IntAct's records for PubMed 28258151.

B1: Complement factor H (Homo sapiens), P08603 (parent)
chain: MRLLAKIICLMLWAICVAEDCNELPPRRNTEILTGSWSDQTYPEGTQAIYKCRPGYRSLGNVIMVCRKGEWVALNPLRKCQKRPCGHPGDTPFGTFTLTGGNVFEYGVKAVYTCNEGYQLLGEINYRECDTDGWTNDIPICEVVKCLPVTAPENGKIVSSAMEPDREYHFGQAVRFVCNSGYKIEGDEEMHCSDDGFWSKEKPKCVEISCKSPDVINGSPISQKIIYKENERFQYKCNMGYEYSERGDAVCTESGWRPLPSCEEKSCDNPYIPNGDYSPLRIKHRTGDEITYQCRNGFYPATRGNTAKCTSTGWIPAPRCTLKPCDYPDIKHGGLYHENMRRPYFPVAVGKYYSYYCDEHFETPSGSYWDHIHCTQDGWSPAVPCLRKCYFPYLENGYNQNYGRKFVQGKSIDVACHPGYALPKAQTTVTCMENGWSPTPRCIRVKTCSKSSIDIENGFISESQYTYALKEKAKYQCKLGYVTADGETSGSITCGKDGWSAQPTCIKSCDIPVFMNARTKNDFTWFKLNDTLDYECHDGYESNTGSTTGSIVCGYNGWSDLPICYERECELPKIDVHLVPDRKKDQYKVGEVLKFSCKPGFTIVGPNSVQCYHFGLSPDLPICKEQVQSCGPPPELLNGNVKEKTKEEYGHSEVVEYYCNPRFLMKGPNKIQCVDGEWTTLPVCIVEESTCGDIPELEHGWAQLSSPPYYYGDSVEFNCSESFTMIGHRSITCIHGVWTQLPQCVAIDKLKKCKSSNLIILEEHLKNKKEFDHNSNIRYRCRGKEGWIHTVCINGRWDPEVNCSMAQIQLCPPPPQIPNSHNMTTTLNYRDGEKVSVLCQENYLIQEGEEITCKDGRWQSIPLCVEKIPCSQPPQIEHGTINSSRSSQESYAHGTKLSYTCEGGFRISEENETTCYMGKWSSPPQCEGLPCKSPPEISHGVVAHMSDSYQYGEEVTYKCFEGFGIDGPAIAKCLGEKWSHPPSCIKTDCLSLPSFENAIPMGEKKDVYKAGEQVTYTCATYYKMDGASNVTCINSRWTGRPTCRDTSCVNPPTVQNAYIVSRQMSKYPSGERVRYQCRSPYEMFGDEEVMCLNGNWTEPPQCKDSTGKCGPPPPIDNGDITSFPLSVYAPASSVEYQCQNLYQLEGNKRITCRNGQWSEPPKCLHPCVISREIMENYNIALRWTAKQKLYSRTGESVEFVCKRGYRLSSRSHTLRTTCWDGKLEYPTCAKR

The assay covers variants of B1. To be noted: with sdre_staam sdrE.
Take R1210A: the “effect of a mutation on the interaction” value is “increasing interaction”.

As for C1218A, the “effect of a mutation on the interaction” value was “increasing interaction”.

As to K1222A, the “effect of a mutation on the interaction” value is on record as “with no effect”.

For the variant T1213A, the “effect of a mutation on the interaction” value is recorded as “increasing interaction”.

For Y1225A, the “effect of a mutation on the interaction” value is “increasing interaction”.

For R1206A, the “effect of a mutation on the interaction” value is “disrupting interaction”.

As for E1224A, the “effect of a mutation on the interaction” value is listed as “increasing interaction”.

On to R1215A, for which the “effect of a mutation on the interaction” value is given as “with no effect”.

In the case of T1216A, the “effect of a mutation on the interaction” value was “increasing interaction”.

S1209A: the “effect of a mutation on the interaction” value is given as “decreasing interaction”.

As for H1212A, the “effect of a mutation on the interaction” value is given as “increasing interaction”.

On to D1220A, for which the “effect of a mutation on the interaction” value is recorded as “with no effect”.

Turning to S1211A, the “effect of a mutation on the interaction” value is on record as “decreasing interaction”.

In the case of T1217A, the “effect of a mutation on the interaction” value was “with no effect”.

In the case of W1219A, the “effect of a mutation on the interaction” value was “with no effect”.

As to L1214A, the “effect of a mutation on the interaction” value is “increasing interaction”.

As to P1226A, the “effect of a mutation on the interaction” value is on record as “decreasing interaction”.

Consider L1207A, for which the “effect of a mutation on the interaction” value is reported as “decreasing interaction”.

As for L1223A, the “effect of a mutation on the interaction” value is “increasing interaction”.

With S1208A, the “effect of a mutation on the interaction” value is “disrupting interaction”.
